In publication PMC12139721:

Molecular target: CUL5-RBX2 (human | mouse) (UniProt Q93034)
Assay: SEC + native MS

Chain of UniProt Q93034 (Q93034 whole entry, chain 1 of 2): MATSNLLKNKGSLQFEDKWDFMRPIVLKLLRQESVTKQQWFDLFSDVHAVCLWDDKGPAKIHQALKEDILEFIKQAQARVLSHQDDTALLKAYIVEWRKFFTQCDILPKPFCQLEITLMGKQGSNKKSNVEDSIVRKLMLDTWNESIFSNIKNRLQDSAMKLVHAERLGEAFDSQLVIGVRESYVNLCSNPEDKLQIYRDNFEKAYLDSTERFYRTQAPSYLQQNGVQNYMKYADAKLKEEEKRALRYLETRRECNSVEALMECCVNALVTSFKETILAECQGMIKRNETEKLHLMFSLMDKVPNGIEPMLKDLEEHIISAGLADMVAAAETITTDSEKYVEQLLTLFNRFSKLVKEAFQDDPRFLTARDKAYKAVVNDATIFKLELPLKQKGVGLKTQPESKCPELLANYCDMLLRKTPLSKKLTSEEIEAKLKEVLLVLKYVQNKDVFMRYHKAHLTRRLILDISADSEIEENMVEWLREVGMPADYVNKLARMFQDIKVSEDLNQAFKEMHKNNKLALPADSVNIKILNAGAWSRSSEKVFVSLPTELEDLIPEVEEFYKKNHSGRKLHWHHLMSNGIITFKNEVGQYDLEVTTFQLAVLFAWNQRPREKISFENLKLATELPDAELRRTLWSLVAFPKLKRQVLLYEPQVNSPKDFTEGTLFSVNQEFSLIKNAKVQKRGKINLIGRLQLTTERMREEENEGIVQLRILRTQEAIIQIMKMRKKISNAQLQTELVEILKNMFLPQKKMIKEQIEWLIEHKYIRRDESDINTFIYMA
Chain of UniProt Q93034 (Q9WTZ1 whole entry, chain 2 of 2, further chain): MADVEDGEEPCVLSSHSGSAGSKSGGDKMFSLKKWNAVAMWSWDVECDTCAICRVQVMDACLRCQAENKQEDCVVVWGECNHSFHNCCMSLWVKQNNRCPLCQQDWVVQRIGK

stoichiometry N: 1
Substance: PCMTD1-ELOBC (from UniProt Q96MG8;Q15370;Q15369) (complex)
